30 sequences from the nanobody polyreactivity screen of Harvey et al. (2022) can be followed below.

A short description of this data set: yeast display, Sf9 membrane polyspecificity reagent, FACS + sequencing; frameworks hold sequencing errors. A digest of the protocol: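 Using colony PCR, genes from sorted yeast display clones were amplified, then sequenced on MiSeq at 2 × 250 and filtered by CDR length. The clones had been stained with 10% biotinylated, detergent-solubilized Sf9 membrane reagent for 1 hour at 4 °C and sorted by FACS into low and high (top ~1%) gates on anti-HA and streptavidin fluorescence. Polyreactivity labels come from the gate of origin.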
With “QVQLVESGGGLVQAGGSLRLSCAASGLTFYVYTMGWYRQAPGKERELVAVISSGDSTYYADSVKGRFTISRDNAKNTVYLQMNSLKPEDTAVYYCAAGTHYRIVRYGLYDYWGQGTQVTVSS”, the “polyreactivity (PSR sort gate)” value is “low polyreactivity”.
Under “QVQLVESGGGLVQAGGSLRLSCAASGLTFYVYTMGWYRQEPGKERELVAAITGSGGSTFYADSVKGRFTISRDNAKNTVFIQMNSLKREDTAVYYCAAYYYMSDGYDYWGQGTQVTVSS” stands “low polyreactivity”; under “QVQLVESGGGLVQAGGSLRLSCAASGLTFYWNAMGWYRQAPGKERELVASISQSSGNTYYADSVKGRFTISRDNAKNTVYFQMNSLKPEDTAVYYCAARNRPSLNRYYYWGQGTQVNVSS”, “low polyreactivity”.
To “QVQLVESGGGLVQAGGSLRLSCAASGLTFYYNAMGWYRQAPGKERELVAAISRSGGSTYYADSVKGRFTISRDNAKNTVYLQMNSLEPEDTAVYYCAAALRKEYDYWGQGTQVTVSS” belongs “high polyreactivity”; to “QVQLVESGGGLVQAGGSLRLSCAASGLTFYYNAMGWYRQAPGKERELVAAITRGTSTHYADSVKWRFTISRDNAKNTVYLQMNSLKPEDTAVYYCAAPYRYSWWRGDYWGQGTQVTVSS”, “high polyreactivity”; to “QVQLVESGGGLVQAGGSLRLSCAASGLTFYYYAMGWSRQAPGKERELVAAISRSGGSTYYADSVKGRFTISRDNAKNTVYLQINSLKPEDTAVYYCAAREPYEGQRYYYEYYYWGQGTQVTVSS”, “high polyreactivity”.
Under “QVQLVESGGGLVQAGGSLRLSCAASGLTFYYYAMGWYRQAPGKERELVASINRSSGSTYYADSVKGRFTISRDNAKNTVYLQMNSLKPEDTAVYYCAVKKHWPHPAYTRYYKYYYWGQGTQVTVSS” stands “high polyreactivity”.
As to “QVQLVESGGGLVQAGGSLRLSCAASGLTFYYYAMGWYSQPPGKERELVAAISIGGSTDYADSVKGRFTISRDNAKNTVYLQMNSLKPEDTAVYYCNVDDNSEYEYWGQGTQVTVSS”, the “polyreactivity (PSR sort gate)” value is reported as “low polyreactivity”.
Under “QVQLVESGGGLVQAGGSLRLSCAASGLTFYYYTMGWYRQAPGKERELVATISRSGTSTNYADSVKGRFTISRDNAKNTVYLQMNSLKPEDTAVYYCAAVLRWRDLFSEYYYWGQGTQVTVSS” stands “high polyreactivity”.
Consider “QVQLVESGGGLVQAGGSLRLSCAASGLTIDYYTMGWYRQAPGKERELVAAINWSGGRTYYADSVKGRFTISRDHAKNTVYLQMNSLKPEDTAVYYCAADTYRRHDDDYWGQGTQVTVSS”, for which the “polyreactivity (PSR sort gate)” value was “high polyreactivity”.
To “QVQLVESGGGLVQAGGSLRLSCAASGLTIFRNAMGWYRQAPGKEREFVAGITSTDGSTYYADSVKGRFTISRDNAKNTVYLQMNSLKPEDTAVYYCAAAYRVRGRTYDSWGQGTQVTVSS” belongs “high polyreactivity”; to “QVQLVESGGGLVQAGGSLRLSCAASGLTIFVNAMGWYRQAPGKERELVATISCGGSTYYADSVKGRFTISRDNANNTVYLQLNSLKPEDSSVFYCNAADVGGQWWYPYTYNYWGQGTQVTVSS”, “low polyreactivity”.
Under “QVQLVESGGGLVQAGGSLRLSCAASGLTIWRYAMGWYRQAPGKEREFVATISQNGGRTYYADSVKGRFTISRDNAKNTVYLQMNSLKPEVNAVYYCAADDWRWGYDYWGQGTQVTVSS” stands “high polyreactivity”; under “QVQLVESGGGLVQAGGSLRLSCAASGLTLDQYPMGWYRPAPGKEREFVAAISYSGGNTYYADSVKGRFTISRYNAKNTVYLQMNSLKPEETAVYYCAAYYYYFYHKVIWYELDYWGHGTQVTVSS”, “low polyreactivity”; under “QVQLVESGGGLVQAGGSLRLSCAASGLTLGRYAKGWYRQAPGKARELVAVITGGGSTNYADSVKGRFTISRDNAKNTVYLQMNTLKTEDTAVYFCAVRGGIFQTLSTWYRYYYWGQGTQVTVSS”, “high polyreactivity”.
To “QVQLVESGGGLVQAGGSLRLSCAASGLTLGRYARGWYRQAPGKERELVAVITGGGSTNYADSVKGRFTISRDNSKNTVYLQMNSLKPEDTAVYYCAAARSPYKYSYWGQGTQVTVSS” belongs “high polyreactivity”; to “QVQLVESGGGLVQAGGSLRLSCAASGLTLGSYTMGWYRQAPGKERELVAAIRKRGSSSYYADSVKGRFTISRDNAKNTVYLQMISQKPEDTAVYYCATDVASYWYRFFWRYGYWGQGTQVTVSS”, “low polyreactivity”; to “QVQLVESGGGLVQAGGSLRLSCAASGLTLKRNAMGWYRQAPGKERELVAAISGRGGSTYYADSVKGRFTISRDNAKNTVYLQMNSLKPEVTAVYYCAATVQYSPIYDYWGQGTQVTVSS”, “high polyreactivity”.
On to “QVQLVESGGGLVQAGGSLRLSCAASGLTLRNYAMGWYRQAPGKERELVAAITTGGGRTYYADSVKGRFTISRDNAKNTVYFQMNSVKPEDTAVYYCAADAPREYVDHYKYDDDYWGQGTQVTVSS”, for which the “polyreactivity (PSR sort gate)” value is listed as “low polyreactivity”.
To “QVQLVESGGGLVQAGGSLRLSCAASGLTLTWNAMGWYRQAPGKERELVAAITGSGGRTNYADSVKGRFTISRDNAKNTVYLQMNSLKPEDTAVYYCASFRWYHWGTRYDYWGQGTQVTVSS” belongs “high polyreactivity”; to “QVQLVESGGGLVQAGGSLRLSCAASGLTLTYYAMGWYRQAAGKERELVAAISSSGGSTYYADSVKGRFTISRDNAKNTVYLQMNSLKPEDTAVYYCAATRVSWTGRDDYWGQGTQVTVSS”, “high polyreactivity”.
Under “QVQLVESGGGLVQAGGSLRLSCAASGLTLWTYAMGWYIQAPGQERELVARIRSGGSTYYADSVKGRFTISRDNAKNTVYLQMNSLKPEDTAVYYCAADLQSRVDYWGQGTQVTVSS” stands “high polyreactivity”; under “QVQLVESGGGLVQAGGSLRLSCAASGLTLYFYVMGWYRQAPGKERELVAAISSTGSTYYADSVKGRFSISRDNAKNTVYLQMNSLKPEDTAVYYCAARKRGWYGYWGQGTQVTVSS”, “high polyreactivity”.
To “QVQLVESGGGLVQAGGSLRLSCAASGLTLYKNGMGWYRQAPGKERELVAVISRSGGRTYYADSVKGRFTISRDNAKNTVYLQMNSLKPEDTAVYYCAARQYGPRYTYYYWGQGTQVTVSS” belongs “high polyreactivity”.
As to “QVQLVESGGGLVQAGGSLRLSCAASGLTLYKNGMGWYRQAPGKERELVAVISRSGGRTYYAESVKGRFTISRDNAKNTVYLQMNSLKPEDTSVYYCAKRYGYTEYYYWGQGTQVTVSS”, the “polyreactivity (PSR sort gate)” value is “high polyreactivity”.
To “QVQLVESGGGLVQAGGSLRLSCAASGLTLYRYVMGWYRQAPGKERELVADISGRGTSTYYADSVKGRFTISRDNAKNTVYLQMNRLKPAATAVYYCNAEYTKTGALVIPYTYYYAEDYWGQGTQVTVSS” belongs “low polyreactivity”; to “QVQLVESGGGLVQAGGSLRLSCAASGLTLYYNAMGWYRQAPGKERELVAAMSGSGGNTYYADSVKGRFTISRDNAKNTVYLQMNSLKPEDTAVYYCNAYTHSRNPERREYYWGQGTQVTVSS”, “high polyreactivity”.
As to “QVQLVESGGGLVQAGGSLRLSCAASGLTSVRYAMGWYRQAPGKERELVARISTGGSTYYADSVKGRFTISRDNAKNTVYLQMNSLKPEDTAVYYCNKGYARRYASGYDYWGQGTQVTVSS”, the “polyreactivity (PSR sort gate)” value is reported as “high polyreactivity”.
To “QVQLVESGGGLVQAGGSLRLSCAASGLTVKWNAMGWYREAPGKETELFASITSGGSTNYADSVKGRFTISRDNAKNTVYLQMNSLKPEDTAFYYCNAEYYLFKRPYSYYYWGQGTQVTVSS” belongs “low polyreactivity”.
To “QVQLVESGGGLVQAGGSLRLSCAASGMFGLNAMGWYRQAPGKERELVAAIRWTGSSTYYADSVKGRFTISRDNAKNTVYLQMNSLKPEDTADYYCAADFYVWGIWMEYWGQGTQVTVSS” belongs “high polyreactivity”.
